The record followed here is patent US7012128B2, “Interaction between cyclin D1 and steroid receptor co-activators and uses thereof in assays” (TopoTarget UK Limited, priority 1998, dated 2006).

Type in all cases: cell-based
In test [1] the target is E2F-1 transcription factor (Homo sapiens, UniProt Q01094). The test can be described thus: Effect on E2F-1 transcription factor (data not shown).
For test [2], the system named is ER 1-535 and ER L543/544A mutants. The test can be described thus: ERE-TATA-luciferase transactivation of AF-2 mutant ERs in COS-7 cells. To be noted: COS-7, 1, 2.5, 5 μg SRC1-DN, 10 nM ligand. The protocol:
FIG. 2. Effect of cyclin D1 on helix 12 mutants of ER. The effect of cyclin D1 on ER mutants was tested in COS-7 cells (A, B) and in U2-OS cells (C, D) in the presence of ligand. An ERE-TATA-luciferase reporter construct was used in transient transfections together with cyclin D1 and ER 1-535 (A, C) or ER L543/544A mutants (B, D). β-Galactosidase served as an internal control. The reporter activity was determined both in the presence (black bars) and in the absence (white bars) of 10 nM 17β-estradiol. The relative luciferase activity was calculated by normalizing to the b-galactosidase activity. The relative reporter activity of wild type ER in the presence of ligand was used as a reference and set at 100%. […] The transfection were performed in at least five separate experiments and expressed as average ±SD.
FIG. 3. Role of coactivators in cyclin D1—induced transactivation. • (A) Effect of a dominant negative form of SRC-1 (SRC1-DN) on ER transactivation. […] The relative activity was calculated by normalizing to the internal control and was divided by luciferase activity of ER (mutant) in the presence of ligand. The transfection for each set of conditions were done at least in four independent experiments and expressed as average ±SD. […]

A further test relates to wild type ER. Kind of test: ERE-TATA-luciferase transactivation of wild type ER in COS-7 cells. As to conditions: COS-7, 3 μg SRC1-DN, 10 nM ligand. As to the method: FIG. 1. Mapping of the region of cyclin D1 required for ER-mediated transactivation. • (A) The effect of cyclin D1 deletion mutants on ER activation in the presence of ligand. The cyclin D1 derivatives used in this study are shown in the left panel; right side of Figure represents the relative capacity of the mutants to potentiate ERE-dependent transcription. ER-negative COS-7 cells were transfected with expression vectors for wild type ER (200 ng), cyclin D1 or cyclin D1 mutants (2.5 μg), an internal control §-galactosidase plasmid (0.5 μg) and an ERE-TATA-luciferase reporter (3 μg). The effect on ER transactivation of wild type cyclin D1 was set to 100%. These studies were performed in three separate experiments and expressed as mean values with standard deviation less then […]. The alignment of leucine-rich motif of ER with D-type cyclins are shown on the bottom; the leucine-rich motif in cyclin D1 is indicated as a dark box. The identifiers for the sequences shown are as follows: Cyclin D1 (SEQ ID NO:11), Estrogen receptor (SEQ ID NO:12), the Cyclin D2 (SEQ ID NO:13), and the Cyclin D3 (SEQ ID NO:14). • (B) ER activation by D-type cyclins, cyclin D1 L254/255A point mutant (D1-LALA) and SRC-1 in the presence of ligand. COS-7 cells were transfected with D-type cyclin expression vectors, cyclin D1 Leucine-to-Alanine point mutant (D1-LALA) or SRC-1 expression vector together with wild type ER expression vector, an ERE-TATA-luciferase reporter plasmid and the internal control β-galactosidase construct. Data are expressed as relative luciferase activity compared with basal ERE-luciferase activity of wild type ER and are normalized for transfection efficiencies.
FIG. 3. Role of coactivators in cyclin D1—induced transactivation. • (A) Effect of a dominant negative form of SRC-1 (SRC1-DN) on ER transactivation. SRC1-DN encoding amino acids 1245-1441 of SRC-1 (1, 2.5 and 5 μg) was introduced by transient transfection together with wild type ER (200 ng) and was tested for its ability to modulate ERE-dependent transcription. • (B) Effect of SRCI-DN on SRC-1 and TIF 2 mediated ER transactivation. SRC-1 (3 μg) or TIF-2 (3 μg) were transfected with SRC1-DN (3 μg) and tested for ER transactivation. • (C) Effect of SRC1-DN on cyclin D1-induced transactivation of ER 1-535 mutant. Cyclin D1 was cotransfected with SRC1-DN (1, 2.5, 5 μg) and tested for its effect on an ER harboring a deletion of coactivator binding site in helix 12 (ER 1-535). • (D) Effect of SRC1-DN on cyclin D1-induced transactivation of ER L543/544A mutant. Cyclin D1 and SRC1-DN (1, 2.5, 5 gg) were transfected and tested for the activity of ER helix 12 point mutant (ER L543/544A). The transient transfections (A-C) were performed in COS-7 cells, which were maintained in DMEM with 10 nM ligand. The relative activity was calculated by normalizing to the internal control and was divided by luciferase activity of ER (mutant) in the presence of ligand. The transfection for each set of conditions were done at least in four independent experiments and expressed as average ±SD.
To study how cyclin D1 activates ER, cyclin D1 deletion mutants were tested for their effect on ER-transactivation. COS-7 cells were transfected with cyclin D1 mutants, together with ER and a luciferase reporter gene construct driven by a minimal TATA promoter linked to an estrogen response element (ERE). […] This part of the protein is not involved in CDK interaction and is poorly conserved among the different cyclins. […] To test the relevance of this leucine-rich domain of cyclin D1 in ER activation, a cyclin D1 mutant was constructed in which leucines 254 and 255 were mutated to alanines (D1 L254/255A). This mutation in cyclin D1 is similar to the mutation in ER (ER L543/544A) that interferes with coactivator binding to AF-2 (Danielian et al., 1992). […]

Sequence of E2F-1 transcription factor (Q01094 whole entry): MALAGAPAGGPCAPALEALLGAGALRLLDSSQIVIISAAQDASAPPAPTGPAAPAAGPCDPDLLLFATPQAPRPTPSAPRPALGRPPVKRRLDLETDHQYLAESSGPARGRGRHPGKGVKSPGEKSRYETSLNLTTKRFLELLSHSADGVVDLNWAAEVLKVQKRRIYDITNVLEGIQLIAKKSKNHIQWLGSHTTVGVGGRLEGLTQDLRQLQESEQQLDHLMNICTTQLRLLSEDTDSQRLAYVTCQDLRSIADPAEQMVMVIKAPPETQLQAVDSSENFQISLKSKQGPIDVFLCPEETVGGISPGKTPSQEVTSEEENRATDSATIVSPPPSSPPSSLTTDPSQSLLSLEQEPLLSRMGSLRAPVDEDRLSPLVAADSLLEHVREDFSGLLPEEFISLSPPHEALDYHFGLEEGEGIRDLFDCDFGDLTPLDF

B1: SRC1-DN: dominant negative mutant of SRC-1 encoding amino acids 1245-1441 of SRC-1 (protein, UniProt Q15788 1245-1441, looked up, fragment)
chain: FAPSLSPGSSMVPMPIPPPQSSLLQQTPPASGYQSPDMKAWQQGAIGNNNVFSQAVQNQPTPAQPGVYNNMSITVSMAGGNTNVQNMNPMMAQMQMSSLQMPGMNTVCPEQINDPALRHTGLYCNQLSSTDLLKTEADGTQQVQQVQVFADVQCTVNLVGGDPYLNQPGPLGTQKPTSGPQTPQAQQKSLLQQLLTE
Take B1: the “effect on E2F-1 transcription factor” value in test [1] was “inactive”. Also, the “effect on cyclin D1-induced activation of the ER AF-2 mutants” value in test [2] is listed as “markedly repressed”. Besides, in the test on wild type ER, the “effect on SRC-1 and TIF2 mediated ER transactivation” value is “inhibited”.
